What is called Kd is the concentration at which binding is half-saturated. What is called koff is a measure of how fast the partners let go of each other. By kon is commonly meant the rate constant with which the complex forms.

To fix the notation:
B1: 2H8.03 (antibody, human IgG1, V domains shown)
VH: EVQLQQSGAELVRPGTSVKLSCKASGYTFTSYWIHWVKQRPGQGLEWIGMIDPSDSYTKYNQKFKDKATLTVDTSSSTTYMHLSSLTSEDSAVYYCARSGVAFPYWGQRTLVTVSA
VL: DIVMTQSQKFMSKSVGDTVSVTCKASQDVGRNVAWYQQKSGQSPKSLIYSASHRYSGVPDRFTGSGSGTDFTLTISNVQSEDLADYFCQQYNSYPYTFGGGTRLEIK
notes: human IgG1/kappa; also called 2H8_HCvar3 + 2H8_LC
B2: 2H8.29 (antibody, human IgG1, V domains shown)
VH: EVQLQQPGAEVVRPGTSVKLSCKASGYTFTNYWMHWVKQRPGQGLEWIGMIDPSDNYTKYNQKLKGKATLTVDTSSSTANMHVNSLTSEDSAVYFCARSGVAFPYWGQGTLVTVSA
VL: DIVMTQSQKFMSTSVGDRVSVTCKASQNVGTNVAWYQQKSGQSPKALIYSASHRYSGVPDRFTGSGSGTDFTLTISNVQSEDLAEYFCQQYNSYPYTFGGGTKLEIK
notes: human IgG1/kappa; also called 2H8_HCvar5 + 2H8_LCvar5
B3: 2H8.30 (antibody, human IgG1, V domains shown)
VH: EVQLQQSGAELVRPGTSVKLSCKASGYTFNNYWMHWVKQRPGQGLEWIGMIDPSDDDIKNNQKFKGKATLTVDTSSSTAYMQLISLTSEDSAVYYCARSGVALPYWGQGTLVTVSA
VL: DIVMTQSQKFMSTSVGDRVSVTCKASQNVGTNVAWYQQKSGQSPKALIYSASHRYSGVPDRFTGSGSGTDFTLTISNVQSEDLAEYFCQQYNSYPYTFGGGTKLEIK
notes: human IgG1/kappa; also called 2H8_HCvar6 + 2H8_LCvar5
B4: 2H8.26 (antibody, human IgG1, V domains shown)
VH: EVQLQQPGTELVRPGTSVKLSCKASGYTFTNYWMHWIKQRPGQGLEWIGMIDPSDTYTKFNQNFKGKATLTVDTSSSTAYMQLNSLTSEDSAVYYCARSGVAFPYWGQGTTVTVSS
VL: DIVMTQSQKFMSTSVGDRVSVTCKASQNVGTNVAWYQQKSGQSPKALIYSASHRYSGVPDRFTGSGSGTDFTLTISNVQSEDLAEYFCQQYNSYPYTFGGGTKLEIK
notes: human IgG1/kappa; also called 2H8_HCvar2 + 2H8_LCvar5
B5: 2H8.25 (antibody, human IgG1, V domains shown)
VH: EVQLQQSGPELVKPGASVKLSCKASGYTFTNFWIHWLKQRPGQGLEWIGMIDPSDSYTKYNQKFKAKATLTVDTSSSTTYMHLSSLTSEDSAVYYCARSGVAFPYWGQRTLVTVSA
VL: DIVMTQSQKFMSTSVGDRVSVTCKASQNVGTNVAWYQQKSGQSPKALIYSASHRYSGVPDRFTGSGSGTDFTLTISNVQSEDLAEYFCQQYNSYPYTFGGGTKLEIK
notes: human IgG1/kappa; also called 2H8_HC + 2H8_LCvar5
B6: 2H8.20 (antibody, human IgG1, V domains shown)
VH: EVQLQQPGTELVRPGTSVKLSCKASGYTFTNYWMHWIKQRPGQGLEWIGMIDPSDTYTKFNQNFKGKATLTVDTSSSTAYMQLNSLTSEDSAVYYCARSGVAFPYWGQGTTVTVSS
VL: DIVMTQSQKFMSTSVGDRVSITCKASQNVGTNVAWYQQKPGQSPKALIYSASYRYSGVPDRFTGSGSGTDFTLTISNVQSEDLAEYFCQQYNSYPYTFGGGTKLEIK
notes: human IgG1/kappa; also called 2H8_HCvar2 + 2H8_LCvar4
B7: 2H8.11 (antibody, human IgG1, V domains shown)
VH: EVQLQQPGAEVVRPGTSVKLSCKASGYTFTNYWMHWVKQRPGQGLEWIGMIDPSDNYTKYNQKLKGKATLTVDTSSSTANMHVNSLTSEDSAVYFCARSGVAFPYWGQGTLVTVSA
VL: DIVMTQSQKFMSTSVGDRVSVTCKASQNVGTNVAWYQQKPGQSPKALIYSASHRYSGVPDRFTGSGSGTDFTLTISNVQSEDLAEYFCQQYNSYMYTFGGGTKLEIK
notes: human IgG1/kappa; also called 2H8_HCvar5 + 2H8_LCvar2
B8: 2H8.28 (antibody, human IgG1, V domains shown)
VH: EIQLQQSGTELVRPGTSVKLSCKASGYTFTNYWMHWVKQRPGQGLEWIGMIDPSAAYTNYNQNFKGKATLTVDTSSGTAYMQLSSLTSEDSAVYYCARSGVAFPYWGQGTTVTVSS
VL: DIVMTQSQKFMSTSVGDRVSVTCKASQNVGTNVAWYQQKSGQSPKALIYSASHRYSGVPDRFTGSGSGTDFTLTISNVQSEDLAEYFCQQYNSYPYTFGGGTKLEIK
notes: human IgG1/kappa; also called 2H8_HCvar4 + 2H8_LCvar5
B9: 2H8.38 (antibody, human IgG1, V domains shown)
VH: EVQLQQPGTELVRPGTSVKLSCKASGYTFTNYWMHWIKQRPGQGLEWIGMIDPSDTYTKFNQNFKGKATLTVDTSSSTAYMQLNSLTSEDSAVYYCARSGVAFPYWGQGTTVTVSS
VL: DILMTQSQKFMSTSVGDRVSVTCKASQNVGRNVAWYQQISGQSPKPLIYSASHRYSGVPDRFTGSGSGTDFTLTISNVQSEDLVEFFCQQYNSYPYTFGGGTKLEIK
notes: human IgG1/kappa; also called 2H8_HCvar2 + 2H8_LCvar7
B10: 2H8.14 (antibody, human IgG1, V domains shown)
VH: EVQLQQPGTELVRPGTSVKLSCKASGYTFTNYWMHWIKQRPGQGLEWIGMIDPSDTYTKFNQNFKGKATLTVDTSSSTAYMQLNSLTSEDSAVYYCARSGVAFPYWGQGTTVTVSS
VL: DIQMTQSQKFMSTSIGDRVSVTCKASQNVGTNVAWYQQKPGQSPKSLIYSASHWYSGVPDRFTGSGSGTDFTLTISNVQSEDLAEYFCQQYNSYPYTFGGGTKLEIK
notes: human IgG1/kappa; also called 2H8_HCvar2 + 2H8_LCvar3
B11: 2H8.22 (antibody, human IgG1, V domains shown)
VH: EIQLQQSGTELVRPGTSVKLSCKASGYTFTNYWMHWVKQRPGQGLEWIGMIDPSAAYTNYNQNFKGKATLTVDTSSGTAYMQLSSLTSEDSAVYYCARSGVAFPYWGQGTTVTVSS
VL: DIVMTQSQKFMSTSVGDRVSITCKASQNVGTNVAWYQQKPGQSPKALIYSASYRYSGVPDRFTGSGSGTDFTLTISNVQSEDLAEYFCQQYNSYPYTFGGGTKLEIK
notes: human IgG1/kappa; also called 2H8_HCvar4 + 2H8_LCvar4
B12: 2H8.08 (antibody, human IgG1, V domains shown)
VH: EVQLQQPGTELVRPGTSVKLSCKASGYTFTNYWMHWIKQRPGQGLEWIGMIDPSDTYTKFNQNFKGKATLTVDTSSSTAYMQLNSLTSEDSAVYYCARSGVAFPYWGQGTTVTVSS
VL: DIVMTQSQKFMSTSVGDRVSVTCKASQNVGTNVAWYQQKPGQSPKALIYSASHRYSGVPDRFTGSGSGTDFTLTISNVQSEDLAEYFCQQYNSYMYTFGGGTKLEIK
notes: human IgG1/kappa; also called 2H8_HCvar2 + 2H8_LCvar2
B13: 2H8.17 (antibody, human IgG1, V domains shown)
VH: EVQLQQPGAEVVRPGTSVKLSCKASGYTFTNYWMHWVKQRPGQGLEWIGMIDPSDNYTKYNQKLKGKATLTVDTSSSTANMHVNSLTSEDSAVYFCARSGVAFPYWGQGTLVTVSA
VL: DIQMTQSQKFMSTSIGDRVSVTCKASQNVGTNVAWYQQKPGQSPKSLIYSASHWYSGVPDRFTGSGSGTDFTLTISNVQSEDLAEYFCQQYNSYPYTFGGGTKLEIK
notes: human IgG1/kappa; also called 2H8_HCvar5 + 2H8_LCvar3
B14: 2H8.07 (antibody, human IgG1, V domains shown)
VH: EVQLQQSGPELVKPGASVKLSCKASGYTFTNFWIHWLKQRPGQGLEWIGMIDPSDSYTKYNQKFKAKATLTVDTSSSTTYMHLSSLTSEDSAVYYCARSGVAFPYWGQRTLVTVSA
VL: DIVMTQSQKFMSTSVGDRVSVTCKASQNVGTNVAWYQQKPGQSPKALIYSASHRYSGVPDRFTGSGSGTDFTLTISNVQSEDLAEYFCQQYNSYMYTFGGGTKLEIK
notes: human IgG1/kappa; also called 2H8_HC + 2H8_LCvar2
B15: 2H8.13 (antibody, human IgG1, V domains shown)
VH: EVQLQQSGPELVKPGASVKLSCKASGYTFTNFWIHWLKQRPGQGLEWIGMIDPSDSYTKYNQKFKAKATLTVDTSSSTTYMHLSSLTSEDSAVYYCARSGVAFPYWGQRTLVTVSA
VL: DIQMTQSQKFMSTSIGDRVSVTCKASQNVGTNVAWYQQKPGQSPKSLIYSASHWYSGVPDRFTGSGSGTDFTLTISNVQSEDLAEYFCQQYNSYPYTFGGGTKLEIK
notes: human IgG1/kappa; also called 2H8_HC + 2H8_LCvar3
B16: 2H8.10 (antibody, human IgG1, V domains shown)
VH: EIQLQQSGTELVRPGTSVKLSCKASGYTFTNYWMHWVKQRPGQGLEWIGMIDPSAAYTNYNQNFKGKATLTVDTSSGTAYMQLSSLTSEDSAVYYCARSGVAFPYWGQGTTVTVSS
VL: DIVMTQSQKFMSTSVGDRVSVTCKASQNVGTNVAWYQQKPGQSPKALIYSASHRYSGVPDRFTGSGSGTDFTLTISNVQSEDLAEYFCQQYNSYMYTFGGGTKLEIK
notes: human IgG1/kappa; also called 2H8_HCvar4 + 2H8_LCvar2
B17: 2H8.23 (antibody, human IgG1, V domains shown)
VH: EVQLQQPGAEVVRPGTSVKLSCKASGYTFTNYWMHWVKQRPGQGLEWIGMIDPSDNYTKYNQKLKGKATLTVDTSSSTANMHVNSLTSEDSAVYFCARSGVAFPYWGQGTLVTVSA
VL: DIVMTQSQKFMSTSVGDRVSITCKASQNVGTNVAWYQQKPGQSPKALIYSASYRYSGVPDRFTGSGSGTDFTLTISNVQSEDLAEYFCQQYNSYPYTFGGGTKLEIK
notes: human IgG1/kappa; also called 2H8_HCvar5 + 2H8_LCvar4
B18: 2H8.33 (antibody, human IgG1, V domains shown)
VH: EVQLQQSGAELVRPGTSVKLSCKASGYTFTSYWIHWVKQRPGQGLEWIGMIDPSDSYTKYNQKFKDKATLTVDTSSSTTYMHLSSLTSEDSAVYYCARSGVAFPYWGQRTLVTVSA
VL: DIQMTQSQKFMSKSVGDRVSVTCKASQNVGSNVAWYQQKSGQSPKSLIYSASHRYSGVPDRFTGSGSGTDFTLTISNVQSEDLADYFCQQYNSYPYTFGGGTRLEIK
notes: human IgG1/kappa; also called 2H8_HCvar3 + 2H8_LCvar6
B19: 2H8.19 (antibody, human IgG1, V domains shown)
VH: EVQLQQSGPELVKPGASVKLSCKASGYTFTNFWIHWLKQRPGQGLEWIGMIDPSDSYTKYNQKFKAKATLTVDTSSSTTYMHLSSLTSEDSAVYYCARSGVAFPYWGQRTLVTVSA
VL: DIVMTQSQKFMSTSVGDRVSITCKASQNVGTNVAWYQQKPGQSPKALIYSASYRYSGVPDRFTGSGSGTDFTLTISNVQSEDLAEYFCQQYNSYPYTFGGGTKLEIK
notes: human IgG1/kappa; also called 2H8_HC + 2H8_LCvar4

In this experiment the target is T1, recombinant BACE1 (BACE1 extracellular domain, R&D Systems Cat#931-AS) (UniProt P56817 22-457).
T1 construct: extracellular domain; also called BACE1 extracellular domain protein
T1 sequence (P56817 22-457): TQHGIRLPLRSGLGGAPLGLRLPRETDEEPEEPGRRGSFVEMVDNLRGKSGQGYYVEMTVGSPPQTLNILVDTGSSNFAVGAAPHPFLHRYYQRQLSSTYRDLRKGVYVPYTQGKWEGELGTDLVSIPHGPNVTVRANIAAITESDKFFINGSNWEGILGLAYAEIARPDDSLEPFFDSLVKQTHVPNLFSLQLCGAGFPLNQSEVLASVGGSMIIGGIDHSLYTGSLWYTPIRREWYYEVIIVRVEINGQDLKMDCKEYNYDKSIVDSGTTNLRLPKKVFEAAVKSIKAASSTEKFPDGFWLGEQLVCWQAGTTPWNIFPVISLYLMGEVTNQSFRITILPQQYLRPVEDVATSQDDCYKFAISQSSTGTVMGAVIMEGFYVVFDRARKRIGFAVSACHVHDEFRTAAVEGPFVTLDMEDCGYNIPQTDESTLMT
Nature of the experiment: SPR Biacore. (In general: Surface plasmon resonance follows binding to a sensor surface in real time, without labels.)
Consider B1, for which the Kd was determined as 17.9 nM, the koff turned out to be 0.000289 s⁻¹ and the kon worked out at 16100 M⁻¹ s⁻¹.

Turning to B2, the Kd stood at 18.6 nM, the koff was found to be 0.000255 s⁻¹ and the kon came to 13700 M⁻¹ s⁻¹.

As for B3, the Kd was 21.2 nM, the koff was determined as 0.000274 s⁻¹ and the kon came out at 12900 M⁻¹ s⁻¹.

For B4, the Kd was found to be 18.3 nM, the koff came to 0.000312 s⁻¹ and the kon was 17000 M⁻¹ s⁻¹.

On to B5, for which the Kd was 15.2 nM, the koff turned out to be 0.000251 s⁻¹ and the kon is 16500 M⁻¹ s⁻¹.

As to B6, the Kd was determined as 93.4 nM, the off-rate constant (koff) turned out to be 0.00147 s⁻¹ and the kon is 15800 M⁻¹ s⁻¹.

For B7, the Kd came out at 17.7 nM, the koff turned out to be 0.000235 s⁻¹ and the kon stood at 13300 M⁻¹ s⁻¹.

Take B8: the dissociation constant (Kd) was determined as 34 nM, the dissociation rate constant (koff) turned out to be 0.00062 s⁻¹ and the kon came to 18200 M⁻¹ s⁻¹.

Consider B9, for which the Kd stood at 17.8 nM, the koff came out at 0.000329 s⁻¹ and the kon is 18500 M⁻¹ s⁻¹.

With B10, the Kd came to 19.2 nM, the koff is 0.000291 s⁻¹ and the kon came to 15200 M⁻¹ s⁻¹.

B11: the Kd stood at 304 nM, the koff turned out to be 0.0109 s⁻¹ and the kon stood at 35900 M⁻¹ s⁻¹.

For the molecule B12, the Kd is 20.9 nM, the koff came to 0.000299 s⁻¹ and the on-rate constant (kon) stood at 14300 M⁻¹ s⁻¹.

For B13, the Kd is 19 nM, the koff was determined as 0.000259 s⁻¹ and the kon turned out to be 13600 M⁻¹ s⁻¹.

Turning to B14, the Kd was 20 nM, the koff stood at 0.000294 s⁻¹ and the on-rate (kon) came out at 14700 M⁻¹ s⁻¹.

In the case of B15, the Kd amounted to 19.8 nM, the koff came to 0.000308 s⁻¹ and the kon came to 15500 M⁻¹ s⁻¹.

On to B16, for which the Kd is 62 nM, the off-rate (koff) was 0.000878 s⁻¹ and the kon came out at 14200 M⁻¹ s⁻¹.

Take B17: the Kd worked out at 79.4 nM, the koff stood at 0.00101 s⁻¹ and the kon worked out at 12700 M⁻¹ s⁻¹.

Consider B18, for which the dissociation constant (Kd) came to 11.8 nM, the off-rate constant (koff) stood at 0.000171 s⁻¹ and the on-rate (kon) is 14500 M⁻¹ s⁻¹.

Consider B19, for which the Kd amounted to 42.5 nM, the koff is 0.000674 s⁻¹ and the association rate constant (kon) is 15900 M⁻¹ s⁻¹.

The values above are taken from US20210070881A1 (DENALI THERAPEUTICS, published 2021).
